Substitutions are numbered along the chain they refer to.

Assay [1] deals with HBsAg of HBV genotype D (GenBank J02203, ayw3) (hepatitis B virus, genotype D, UniProt P03138 164-389). Description: flow cytometry, permeabilized transfected Hep2 cells, 5000 to 7 ng/ml. (In flow cytometry, cells or beads pass a laser one at a time.)
The next assay has as its target HBsAg P120T (hepatitis B virus, genotype D, UniProt Q913A6 175-400). As to the kind of experiment: flow cytometry, permeabilized transfected Hep2 cells, 5 µg/ml.

B1: HBC34-V7 (antibody, V domains shown)
VH: ELQLVESGGGWVQPGGSQRLSCAASGRIFRSFYMSWVRQAPGKGLEWVATINQDGSEKLYVDSVKGRFTISRDNAKNSLFLQMNNLRVEDTAVYYCAAWSGNSGGMDVWGQGTTVSVSS
VL: SYELTQPPSVSVSPGQTVSIPCSGDKLGNKNVCWFQHKPGQSPVLVIYEVKYRPSGIPERFSGSNSGNTATLTISGTQAMDEAAYFCQTFDSTTVVFGGGTRLTVL
notes: also called variant 7; HMB34-V7
Regarding B1, the binding result in assay [1] is given as “binds”.

B2: HBC34 (antibody, V domains shown)
VH: B1 VH
VL: B1 VL with F90W
notes: also called human monoclonal antibody HBC34; WT
For the molecule B2, the binding result with HBsAg P120T was “binds”.

The record behind these values is patent publication US20190016785A1 (HUMABS BIOMED, published 2019).
